Reference: IntAct's records for PubMed 15302918

B1: Nuclear receptor subfamily 2 group C member 2 (Homo sapiens), P49116 (parent)
chain: MTSPSPRIQIISTDSAVASPQRIQIVTDQQTGQKIQIVTAVDASGSPKQQFILTSPDGAGTGKVILASPETSSAKQLIFTTSDNLVPGRIQIVTDSASVERLLGKTDVQRPQVVEYCVVCGDKASGRHYGAVSCEGCKGFFKRSVRKNLTYSCRSNQDCIINKHHRNRCQFCRLKKCLEMGMKMESVQSERKPFDVQREKPSNCAASTEKIYIRKDLRSPLIATPTFVADKDGARQTGLLDPGMLVNIQQPLIREDGTVLLATDSKAETSQGALGTLANVVTSLANLSESLNNGDTSEIQPEDQSASEITRAFDTLAKALNTTDSSSSPSLADGIDTSGGGSIHVISRDQSTPIIEVEGPLLSDTHVTFKLTMPSPMPEYLNVHYICESASRLLFLSMHWARSIPAFQALGQDCNTSLVRACWNELFTLGLAQCAQVMSLSTILAAIVNHLQNSIQEDKLSGDRIKQVMEHIWKLQEFCNSMAKLDIDGYEYAYLKAIVLFSPDHPGLTSTSQIEKFQEKAQMELQDYVQKTYSEDTYRLARILVRLPALRLMSSNITEELFFTGLIGNVSIDSIIPYILKMETAEYNGQITGASL
partner: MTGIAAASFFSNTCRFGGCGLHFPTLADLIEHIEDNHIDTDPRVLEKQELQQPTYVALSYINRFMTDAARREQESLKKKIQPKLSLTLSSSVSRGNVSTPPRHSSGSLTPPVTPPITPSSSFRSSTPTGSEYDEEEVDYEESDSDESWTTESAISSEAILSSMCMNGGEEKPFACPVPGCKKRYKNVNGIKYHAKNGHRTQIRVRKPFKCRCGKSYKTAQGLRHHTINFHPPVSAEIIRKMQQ
B2: Juxtaposed with another zinc finger protein 1 (Homo sapiens), Q86VZ6 (parent)
chain: B1 partner
partner: B1 chain

Variants of: B1
Settings: with jazf1_human JAZF1, Q86VZ6
I576N was tested, and the “effect of a mutation on the interaction” value was “decreasing interaction strength”.

Variants of: B2
Settings: with nr2c2_human NR2C2, P49116
For A69P, the “effect of a mutation on the interaction” value was “with no effect”.
With Y60D the “effect of a mutation on the interaction” value was “disrupting interaction strength”.
In the case of L76P, the “effect of a mutation on the interaction” value is reported as “decreasing interaction strength”.
For K47P, the “effect of a mutation on the interaction” value was “with no effect”.
